Test results reported in paper PMC547899.

Biological target: SMC3-474/702 hinge domain (GAL4:SMC3 fusion in pBIND) (UniProt Q9CW03)
Experiment: two-hybrid; mammalian two-hybrid (Promega Checkmate) in 293 cells: SMC3-474/702 in pBIND, SMC1-474/663 in pACT, pG5/luc reporter, with Hinderin-V5 expression vector (0.3 or 1 ug/ml) or empty pcDNA3.1; luciferase after 48 h, corrected by Renilla

Chain of UniProt Q9CW03 (Q9CW03 474-702): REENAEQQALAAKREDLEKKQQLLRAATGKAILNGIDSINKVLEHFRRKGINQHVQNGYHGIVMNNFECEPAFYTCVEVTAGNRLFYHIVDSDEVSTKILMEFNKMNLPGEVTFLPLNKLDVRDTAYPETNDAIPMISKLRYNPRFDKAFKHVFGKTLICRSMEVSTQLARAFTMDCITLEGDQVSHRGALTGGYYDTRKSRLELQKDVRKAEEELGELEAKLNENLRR

“Hinderin-V5 (complete Hinderin coding region with V5 tag) (from UniProt Q86T90 1-577) (natural protein)” showed an SMC1/SMC3 interaction (luciferase activity) in cells overexpressing Hinderin, percent of 34%.
